B1: NKR-P1B tetramers (biotinylated NKR-P1B on streptavidin) [modified: biotin on the BirA tag; biotin on the BirA tag] [mouse] / Clr-b on transfected HEK293T cells [mouse] (parent)
chain 1: SAKLECPQDWLSHRDKCFHVSQVSNTWKECRIDCDKKGATLLLIQDQEELRFLLDSIKEKYNSFWIGLSYTLTDMNWKWINGTAFNSDVLKITGVTENGSCAAISGEKVTSEGCSSDNRWICQKELN
chain 2: MCVTKASLPMLSPTGSPQEVEVGKILQGKRHGTISPESCAKLYCYYGVIMVLTVAVIALSVALSATKTEQIPVNKTYAACPQNWIGVENKCFYFSEYPSNWTFAQAFCMAQEAQLARFDNQDELNFLMRYKANFDSWIGLHRESSEHPWKWTDNTEYNNTIPIRGEERFAYLNNNGISSTRIYSLRMWICSKLNSYSLHCQTPFFPS

Variants of: B1
Assay: flow cytometry on cells (PE-tetramer staining)
Settings: with Clr-b on transfected HEK293T cells [mouse]; HEK293T cells stained 48 h after transfection with Clr-b pIRES2-EGFP; parent: 3.14e+03

First: chain 1 SAKLECPQDWLSHRDKCFHVSQVSNTWKECRIDCDKKGATLLLIQDQEELRFLLDSIKEKYASFWIGLSYTLTDMNWKWINGTAFNSDVLKITGVTENGSCAAISGEKVTSEGCSSDNRWICQKELN [chain 1 N62A]
Second: chain 1 SAKLECPQDWLSHRDKCFHVSQVSNTWKECRIDCDKKGATLLLIQDQEELRFLLDSIKEKYNSFWIGLSYTLTDMNWKWINGTAFNSDVLKITGVAENGSCAAISGEKVTSEGCSSDNRWICQKELN [chain 1 T96A]
The response of the first is higher: 4880 MFI for the first, 208 MFI for the second.

Compared with chain 1 SAKLECPQDWLSHRDKCFHVSQVSNTWKECRIDCDKKGATLLLIQDQEELRFLLDSIKEKYNSFWIGLSYTLTDMNWKWINGTAFNSDVLKITGVTENGACAAISGEKVTSEGCSSDNRWICQKELN [chain 1 S100A], chain 1 SAKLECPQDWLSHRDKCFHVSQVSNTWKECRIDCDKKGATLLLIQDQEELRFLLDSIKEKYNSFWIGLSYTLTDMNWKWINGTAFNSDVLKITGVTENGSCAAISGEKVTSAGCSSDNRWICQKELN [chain 1 E112A] is higher in response: 217 MFI for the first, 269 MFI for the second.

Compared with chain 1 SAKLECPQDWLSHRDKCFHVSQVSNTWKECRIDCDKKGATLLLIQDQEELRFLLDSIKEKYNSFWIGLSYTLTDMNWKWINGTAFNSDVLKITGVTENGSCAAISGEKVTAEGCSSDNRWICQKELN [chain 1 S111A], chain 1 SAKLECPQDWLSHRDKCFHVSQVSNTWKECRIDCDKKGATLLLIQDQEELRFLLDSIKEKYNSFWIGLSYTLTDMNWKWINGTAFNSDVLKITGVTENGSCAAISGEKVTSEGCSSDNAWICQKELN [chain 1 R119A] is higher in response: 229 MFI for the first, 238 MFI for the second.

Going from chain 1 SAKLECPQDWLSHRDKCFHVSQVSNTWKECRIDCDKKGATLLLIQDQEELRFLLDSIKEKYNSFWIGLSYTLTDMNWKWINGTAFNSDVLKITGVTENGSCAAISGEKVTSEGCASDNRWICQKELN [chain 1 S115A] to chain 1 SAKLECPQDWLSHRDKCFHVSQVSATWKECRIDCDKKGATLLLIQDQEELRFLLDSIKEKYNSFWIGLSYTLTDMNWKWINGTAFNSDVLKITGVTENGSCAAISGEKVTSEGCSSDNRWICQKELN [chain 1 N25A], the response rises from 178 MFI to 5680 MFI.

Compared with chain 1 SAKLECPQDWLSHRDKCFHVSQVSNTWKECRIDCDKKGATLLLIQDQEELRFLLDSIKEKYNSFWIGLSYTLTDMNWKWINGTAFNSDVLKITGVTENGSCAAISGEKVTSEGCSADNRWICQKELN [chain 1 S116A], chain 1 SAKLECPQDWLSHRDKCFHVSQVSNTWKECRIDCDKKGATLLLIQDQEELRFLLDSIKEKYNSFWIGLSYTLTDMNWKWINGTAFNSDVLKITGVTENGSCAAISGEKVTSEGCSRDNRWICQKELN [chain 1 S116R] is lower in response: 211 MFI for the first, 198 MFI for the second.

Going from chain 1 SAKLECPQDWLSHRDKCFHVSQVSNTWKECRIDCDKKGATLLLIQDQEELRFLLDSIKEKYNSFWIGLSYTLTDMNWKWINGTAFNSDVLKITGVTENGSCAAISGEKVTSEGCSSANRWICQKELN [chain 1 D117A] to chain 1 SAKLECPQDWLSHRDKCFHVSQVSNTWKECRIDCDKKGATLLLIQDQEELRFLLDSIKEKYNSFWIGLSYTLTDMNWKWINGTAFNSDVLKITGVTENGSCAAISGEKVTSEGCSSDARWICQKELN [chain 1 N118A], the response falls from 232 MFI to 213 MFI.

Compared with chain 1 SAKLECPQDWLSHRDKCFHVSQVSNTWKECRIDCDKKGATLLLIQDQEELRFLLDSIKEKYNSFWIGLSYTLTDMNWKWINGTAFNSDVLKITGATENGSCAAISGEKVTSEGCSSDNRWICQKELN [chain 1 V95A], chain 1 SAKLECPQDWLSHRDKCFHVSQVSNTWKECRIDCDKKGATLLLIQDQEELRFLLDSIKEKANSFWIGLSYTLTDMNWKWINGTAFNSDVLKITGVTENGSCAAISGEKVTSEGCSSDNRWICQKELN [chain 1 Y61A] is lower in response: 5900 MFI for the first, 346 MFI for the second.

chain 1 SAKLECPQDWLSHRDKCFHVSQVSNTWKECRIDCDKKGATLLLIQDQEELRFLLDSIKEKYNSFWIGLSYTLTAMNWKWINGTAFNSDVLKITGVTENGSCAAISGEKVTSEGCSSDNRWICQKELN [chain 1 D74A] gave a response of 212 MFI.

— PMC6218473, “Recognition of host Clr-b by the inhibitory NKR-P1B receptor provides a basis for missing-self recognition” (Nature Communications, 2018)
